Results reported in paper PMC10482388, “A novel homeostatic mechanism tunes PI(4,5)P2-dependent signaling at the plasma membrane” (Journal of Cell Science, 2023).

Target: (Gly)5–PIP5K1A (aa 1–546), purified human PIP5K1A (human, UniProt Q99755 1-546)
Test: cell-based or functional assay

(Gly)5–PIP5K1A (aa 1–546), purified human PIP5K1A, sequence (Q99755 other isoform, or with tags, fused parts or gaps): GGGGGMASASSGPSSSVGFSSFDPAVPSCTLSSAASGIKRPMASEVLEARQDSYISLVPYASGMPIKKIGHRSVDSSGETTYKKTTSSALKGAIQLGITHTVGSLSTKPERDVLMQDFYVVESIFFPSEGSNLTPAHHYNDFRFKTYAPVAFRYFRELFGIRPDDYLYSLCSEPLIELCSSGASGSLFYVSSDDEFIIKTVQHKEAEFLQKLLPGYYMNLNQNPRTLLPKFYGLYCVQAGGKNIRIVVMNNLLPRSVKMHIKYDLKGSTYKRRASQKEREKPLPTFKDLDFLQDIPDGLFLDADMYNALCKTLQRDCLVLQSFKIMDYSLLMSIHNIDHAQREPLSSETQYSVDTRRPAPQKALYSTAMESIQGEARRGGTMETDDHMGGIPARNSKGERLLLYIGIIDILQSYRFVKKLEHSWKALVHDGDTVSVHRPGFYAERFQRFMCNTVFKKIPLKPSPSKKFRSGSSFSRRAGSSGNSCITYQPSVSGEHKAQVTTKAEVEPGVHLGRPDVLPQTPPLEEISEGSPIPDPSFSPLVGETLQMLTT

- kinetics of PI(4,5)P2 production on PI4P-containing supported lipid bilayers, 1 nM PIP5K1A with or without 50 nM PIP4K2A; time to completion of the reaction: 2 fold (reaction completion time)
B1: (Gly)5–PIP4K2A (aa 1–406), purified human PIP4K2A (enzyme)
chain: GGGGGMATPGNLGSSVLASKTKTKKKHFVAQKVKLFRASDPLLSVLMWGVNHSINELSHVQIPVMLMPDDFKAYSKIKVDNHLFNKENMPSHFKFKEYCPMVFRNLRERFGIDDQDFQNSLTRSAPLPNDSQARSGARFHTSYDKRYIIKTITSEDVAEMHNILKKYHQYIVECHGITLLPQFLGMYRLNVDGVEIYVIVTRNVFSHRLSVYRKYDLKGSTVAREASDKEKAKELPTLKDNDFINEGQKIYIDDNNKKVFLEKLKKDVEFLAQLKLMDYSLLVGIHDVERAEQEEVECEENDGEEEGESDGTHPVGTPPDSPGNTLNSSPPLAPGEFDPNIDVYGIKCHENSPRKEVYFMAIIDILTHYDAKKKAAHAAKTVKHGAGAEISTVNPEQYSKRFLDFIGHILT
modifications: fluorescently labelled LPETGG peptide (Alexa Fluor 488, Alexa Fluor 647 or Cy5) ligated by sortase onto the N-terminal (Gly)5 motif
